The target of assay [1] is cytosolic purine 5'-nucleotidase (cN-II) L375F, C-terminally truncated (human) (UniProt P49902). Kind of assay: SAXS; truncated proteins 0.25 to 2 mg/ml in 50 mM sodium phosphate pH 7.4, 100 mM NaCl, 2 mM TCEP, 5 % glycerol; BM29 beamline ESRF; Guinier approximation, P(r), Porod volume.
Assay [2] shares this target. Kind of assay: SEC; Superdex 200 10/300 GL, 50 mM sodium phosphate pH 7.4, 100 mM NaCl, 2 mM TCEP; 200 ul of 0.5 mg/ml protein; calibrated with high molecular weight standards.
For assay [3], the target named is cytosolic purine 5'-nucleotidase (cN-II), C-terminally truncated wild type (human) (UniProt P49902). Description: SAXS; truncated proteins 0.25 to 2 mg/ml in 50 mM sodium phosphate pH 7.4, 100 mM NaCl, 2 mM TCEP, 5 % glycerol; BM29 beamline ESRF; Guinier approximation, P(r), Porod volume.
Assay [4] has the same target. Description: SEC; Superdex 200 10/300 GL, 50 mM sodium phosphate pH 7.4, 100 mM NaCl, 2 mM TCEP; 200 ul of 0.5 mg/ml protein; calibrated with high molecular weight standards.
Assay [5] concerns the target cytosolic purine 5'-nucleotidase (cN-II) R238W, C-terminally truncated (human) (UniProt P49902). Description: SAXS; truncated proteins 0.25 to 2 mg/ml in 50 mM sodium phosphate pH 7.4, 100 mM NaCl, 2 mM TCEP, 5 % glycerol; BM29 beamline ESRF; Guinier approximation, P(r), Porod volume.
The target is the same in assay [6]. Description: SEC; Superdex 200 10/300 GL, 50 mM sodium phosphate pH 7.4, 100 mM NaCl, 2 mM TCEP; 200 ul of 0.5 mg/ml protein; calibrated with high molecular weight standards. A general note: Size exclusion chromatography separates by hydrodynamic size, large species first.
Assay [7] deals with cytosolic purine 5'-nucleotidase (cN-II) R367Q, C-terminally truncated (human) (UniProt P49902). Description: SAXS; truncated proteins 0.25 to 2 mg/ml in 50 mM sodium phosphate pH 7.4, 100 mM NaCl, 2 mM TCEP, 5 % glycerol; BM29 beamline ESRF; Guinier approximation, P(r), Porod volume.
Assay [8] has the same target. Description: SEC; Superdex 200 10/300 GL, 50 mM sodium phosphate pH 7.4, 100 mM NaCl, 2 mM TCEP; 200 ul of 0.5 mg/ml protein; calibrated with high molecular weight standards.

In the case of “cytosolic purine 5'-nucleotidase (cN-II) L375F, C-terminally truncated (from UniProt P49902 1-536) (enzyme)”, the stoichiometry N in assay [1] and in assay [2] was 4 throughout.

Turning to “cytosolic purine 5'-nucleotidase (cN-II), C-terminally truncated wild type (from UniProt P49902 1-536) (enzyme)”, the stoichiometry N in assay [3] and in assay [4] was 4 throughout.

With “cytosolic purine 5'-nucleotidase (cN-II) R238W, C-terminally truncated (from UniProt P49902 1-536) (enzyme)”, the stoichiometry N in assay [5] and in assay [6] was 4 in each case.

As to “cytosolic purine 5'-nucleotidase (cN-II) R367Q, C-terminally truncated (from UniProt P49902 1-536) (enzyme)”, the stoichiometry N in assay [7] and in assay [8] was 4 in each case.

(Values after paper PMC5070119.)
